From patent US20260241035A1, “FUNCTIONAL NUCLEIC ACID MOLECULE AND METHOD” (THE UNIVERSITY COURT OF THE UNIVERSITY OF EDINBURGH, priority 2022, published 2026)

Molecular target: T1, SOX2 (Homo sapiens, UniProt P48431)
T1 construct: endogenous in cells; host or cells: nuclear extract of GSC7 and GSC328 (patient-derived glioblastoma stem cell lines)
Assay: Biotinylated enhancer pull down from nuclear extract, western blot and mass spectrometry
Assay type: binding
Conditions: for SOX2 enrichment (mass spectrometry): normalised to random sequence 599
Protocol: The oligo was PCR-amplified using biotinylated primers. The PCR product was then SPRI purified to remove biotinylated primer dimers. These dsDNA fragments were incubated with nuclear extract from GSC7 and GSC328. They were then bound to streptavidin magnetic beads, washed three times and the frozen beads were sent for mass spectrometry analysis.
All the buffers were prepared the day before, passed through a […] filter (except the dialysis buffer) and left at 4° C. overnight. DTT and protease inhibitors were added just before use. The cells were scraped on the media and collected on 50 ml falcons, which were spun at 1350 rcf 5 minutes at 4° C. The pellet was resuspended in 50 ml of ice cold PBS, an aliquot was taken for cell counting, and spun again spun at 1350 rcf 5 minutes at 4° C. The pellet was then resuspended in 5 ml per 40 million cells of ice cold buffer A (10 mM HEPES pH 7.9, 1.5 mM MgCl2, 10 mM KCl, 0.5 mM DTT, protease inhibitors (Complete, Roche, 11697498001)) and incubated on ice for 10 min. The cell suspension was transferred to a glass Dounce homogenizer and dounced 40 times on ice. The cell suspension was transferred to a falcon and centrifuged at 1350 rcf for 10 min at 4° C. The supernatant was discarded (cytosolic extract) and the pellet resuspended in 100 μl per 10 million cells in ice cold buffer B (20 mM HEPES pH 7.9, 5% glycerol, 1 M NaCl, 1.5 mM MgCl2, 0.2 mM EDTA pH 8.0, 0.5 mM DTT, protease inhibitors (Complete, Roche, 11697498001)). The suspension was rotated for 30 minutes at 4° C. and transferred into a dialysis membrane (SnakeSkin, Thermo Scientific, Cat 68100). Dialysis was carried out in 500 ml of dialysis buffer (20 mM HEPES pH 7.9, 5% glycerol, 100 mM KCl, 0.83 mM EDTA pH 8.0, 1.66 mM DTT, protease inhibitors (Complete, Roche, 11697498001)) for two hours at 4° C. with rotation. Dialysis buffer was changed (500 ml) and the dialysis was continued overnight at 4° C. […] The supernatant was collected into new 1.5 ml tubes and quantified (Pierce BCA Protein Assay Kit, Thermo Scientific, Cat 23225). […]

T1 sequence (P48431 whole entry): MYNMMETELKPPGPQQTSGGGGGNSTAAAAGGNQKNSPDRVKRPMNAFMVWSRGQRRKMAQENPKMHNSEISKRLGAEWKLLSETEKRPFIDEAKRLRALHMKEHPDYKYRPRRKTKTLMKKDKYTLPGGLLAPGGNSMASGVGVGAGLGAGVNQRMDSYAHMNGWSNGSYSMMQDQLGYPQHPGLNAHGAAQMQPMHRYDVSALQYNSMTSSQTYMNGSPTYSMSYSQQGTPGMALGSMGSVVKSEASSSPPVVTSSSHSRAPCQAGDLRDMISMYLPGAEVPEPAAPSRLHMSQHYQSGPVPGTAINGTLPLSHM

B1: ID1101: enhancer fragment, SEQ ID NO: 4 (nucleic acid)
DNA: GTGAGTGTGACTCACATGCTGGCATCAGAGCCCCTCTTAGAGCTTAGAACACTGGGCCTCTGTCAGGCAAAGAAAAGGAGTCCCTATGAATAGCCATCTCCACAAATAGCAGTTACTGTCACTTCTTAAAAGACACAAGCATGGCTGGAGACCGGCACTG
SOX2 enrichment (mass spectrometry) (G7 nuclear extract): 4.4 fold
SOX2 pull down (GSC7 and GSC328): pulled down specifically
SOX2 enrichment (mass spectrometry) (GSC328 nuclear extract): 23 fold
